One data set has as its target Asp97 (UniProt position 97, VFRYIDWLLTV). The settings on record: monomeric proteorhodopsin; cited from earlier work.
Data set [1] addresses T1, Asp121 (UniProt position 121, AYRYVDWLLTV). The settings on record: DDM-solubilized, monomeric; cited from earlier work.
Data set [2] deals with T1, Asp121. The experiment in a line: UV-vis. The settings on record: room temperature; 0.3 M NaCl; 6-mix buffer (1.37 mM citric acid, 0.46 mM ADA, 1.04 mM MOPS, 1.25 mM TAPS, 0.81 mM CHES, 1.39 mM CAPS); pH adjusted with HCl or NaOH; unphotolyzed (dark) state, retinal-bound, in nanodisc.
Data set [3] deals with the molecule itself. Nature of the data set: sucrose density gradient centrifugation + absorption spectra (MSP amount per GR from A280); higher-density nanodisc band NDH, reconstituted at pH 5.5, separated on a 10-40% sucrose gradient; spectra in 6-mix buffer, pH 7, 0.3 M NaCl, set to the same peak at about 540 nm.

Read-outs that look alike come from different tables or passages of the source.

In general, pKa refers to the pH at which an ionisable group is half protonated. Regarding “Proteorhodopsin (PR), monomeric (uncultured marine gamma-proteobacterium (the article says only that the gene came from a DNA fragment of gamma-proteobacteria))”, in the data set with Asp97, the pKa was 7.5–7.7. In the case of “Gloeobacter rhodopsin H87M, DDM-solubilized (Gloeobacter violaceus; H87M)”, the pKa result in the data set with Asp121 [1] is recorded as “approximately 4”. Take “Gloeobacter rhodopsin H87M, monomer in nanodisc (Gloeobacter violaceus; H87M)”: the pKa result with Asp121 [2] is given as “approximately 3.72”. In the data set with Asp121 [2], “Gloeobacter rhodopsin (GR), wild type, monomer in nanodisc (NDL) (Gloeobacter violaceus)” came in with a pKa of 7.41. Same read-out and setting: the figure for “Gloeobacter rhodopsin (GR), wild type, trimer in nanodisc (NDH) (Gloeobacter violaceus)” is 4.52.

B1: Gloeobacter rhodopsin (GR), wild type, C-terminal His-tagged (natural protein, Gloeobacter violaceus, UniProt Q7NP59 1-298, looked up)
chain: MLMTVFSSAPELALLGSTFAQVDPSNLSVSDSLTYGQFNLVYNAFSFAIAAMFASALFFFSAQALVGQRYRLALLVSAIVVSIAGYHYFRIFNSWDAAYVLENGVYSLTSEKFNDAYRYVDWLLTVPLLLVETVAVLTLPAKEARPLLIKLTVASVLMIATGYPGEISDDITTRIIWGTVSTIPFAYILYVLWVELSRSLVRQPAAVQTLVRNMRWLLLLSWGVYPIAYLLPMLGVSGTSAAVGVQVGYTIADVLAKPVFGLLVFAIALVKTKADQESSEPHAAIGAAANKSGGSLIS
modifications: retinal bound by a protonated Schiff base linkage (residue not given)
notes: Gloeobacter rhodopsin, H+ pump from the cyanobacterium Gloeobacter violaceus; The same protein was trapped as a trimer (nanodisc band NDH) and as a monomer (nanodisc band NDL) after reconstitution at pH 5.5; also called wild-type GR; trimeric GR (in NDH); source: E. coli BL21(DE3), solubilized with DDM, purified (Ni-NTA agarose); reconstituted into MSP1E3D1/POPC nanodiscs or kept in DDM
For orientation: stoichiometry N means the number of molecules, sites or subunits per partner or assembly. Turning to B1, in data set [3], the “MSP amount per GR, NDL against NDH” value came to 3.3 fold and the “stoichiometry N” value worked out at 3.

These data come from PMC6656774, “Functional importance of the oligomer formation of the cyanobacterial H^+ pump Gloeobacter rhodopsin” (Scientific Reports, 2019).
